One data set concerns human dendritic cells. Type of data set: cell-based. The method, then: (§1) Since some human immune cells such as antigen-presenting cells (macrophages, dendritic cells, etc.) express PDL1, the immunotoxicity of PDL1-targeted antibody-conjugated drugs is an inevitable problem. Human dendritic cells and macrophages, after induced differentiation, were digested and viable cells were counted using Vi-Cell XR cytometer. The cell suspension was adjusted to an appropriate concentration with a culture medium. 80 μl/well of the cell suspension was added to a cell culture plate, which was supplemented with 500 IU/mL of IFN-γ. The test drug was diluted with a gradient (5-fold dilutions). 20 μl of each of the diluted test articles was taken and added to the cell suspension in the cell culture plate, and the cell culture plate was placed in an incubator and cultured for 96 hours. 50 μl/well of a CellTiter-Glo solution (purchased from Promega) that had been thawed in advance and equilibrated to room temperature was added according to CellTiter-Glo operation instructions. The wells were mixed uniformly with a microwell plate shaker for 2 minutes and maintained at room temperature for 10 minutes. The […] signal was measured using Envision 2104 plate reader. SGN-PDL1V was used as one of the control molecules and was disclosed in U.S. Patent No. US 20210101982 A1.

The next data set concerns human macrophages. Type of data set: cell-based. The method, then:
as §1

The test system of data set [1] is human non-small cell lung cancer LU6437 PDX. Nature of the data set: Anti-tumor effect, LU6437 PDX xenograft. Type of data set: in vivo, BALB/c nude mice. Conditions: 3 mg/kg, once a week for three doses, day 21. The method, then: A revived tumor tissue was harvested from HuPrime® lung cancer xenograft model LU6437 tumor-bearing mice and cut into tumor blocks with a diameter of 2-3 mm, which were inoculated subcutaneously at the right anterior scapula of BALB/c nude mice. […] The average volume was 253.70 mm^3 in the actual groups. The day of grouping was defined as day 0. After the start of dosing, the mice were dosed once a week, for three doses, and the body weight and tumor size of the mice were measured twice a week. Clinical symptoms observed during the experiment were recorded. The tumor volume was calculated according to the following formula: tumor volume (mm3)=½×(a×b2) (wherein a represented the long diameter, and b represented the short diameter).

The nature of data set [2]: Preliminary pre-experiment, toxicity to mice. In kind it is in vivo. To be noted: dose of 8 mg/kg. The text has this: For ethical considerations, the […] was not set in the experimental design.
In data set [3] the test system is human PDL1-positive cervical cancer LD1-0010-200614 PDX. Kind of data set: Anti-tumor effect, LD1-0010-200614 PDX xenograft. Conditions: free loaded drug, dose not given, day 35. In kind it is in vivo, Balb/c nude mice. The method, then:
(§2) A human-derived PDL1-positive cervical cancer LD1-0010-200614 model was revived in Balb/c nude mice. Once the tumor had grown to 500-800 mm^3, the tumor tissue was surgically aseptically excised, and non-tumor tissues and necrotic tissues were removed. The tumor tissue was stripped and evenly cut into tissue blocks (about 25-35 mg) of about 3 mm×3 mm×3 mm in size, and then, which were inoculated subcutaneously on the right side of Balb/c nude mice. Once the average tumor volume of the mice for grouping reached 146.74 mm3, the mice were grouped randomly according to the size of the tumor volume, ensuring similar tumor volumes between groups. The day of grouping was defined as day 0. After the start of dosing, the body weight and tumor size of the mice were measured twice a week, and the mice were dosed once a week, for three doses. Clinical symptoms observed during the experiment were recorded. The tumor volume was calculated according to the following formula: tumor volume (mm3)=½×(a×b2) (wherein a represented the long diameter, and b represented the short diameter).

The test system of data set [4] is human PDL1-positive gastric cancer LD1-0017-200636 PDX. Nature of the data set: Anti-tumor effect, LD1-0017-200636 PDX xenograft. Type of data set: in vivo, NU/NU mice. To be noted: free loaded drug, dose not given, day 21. The method, then: as §2, with “gastric” for “cervical”, “LD1-0017-200636” for “LD1-0010-200614”, “NU/NU” for “Balb/c nude”, “30-60” for “25-35”, “138.70” for “146.74”

For data set [5], the system named is human PDL1-positive colorectal cancer LD1-2013-362125 PDX. Kind of data set: Anti-tumor effect, LD1-2013-362125 PDX xenograft. Type of data set: in vivo, NU/NU mice. To be noted: free loaded drug, dose not given, day 31. The method, then: as §2, with “colorectal” for “cervical”, “LD1-2013-362125” for “LD1-0010-200614”, “NU/NU” for “Balb/c nude”, “156.99” for “146.74”

Data set [6] deals with T1, PDL1 on PDL1-positive cells NCI-H292 and NCI-H441 (UniProt Q9NZQ7 19-290, limits assumed).
T1 construct: whole, on cells; Human tumor cell lines; also called CD274; B7-H1
Nature of the data set: flow cytometry on NCI-H292 cells, goat anti-human IgG detection.

The values that follow come from patent US20260199499A1, “ANTI-PDL1 ANTIBODY-DRUG CONJUGATE AND USE” (SHANGHAI HENLIUS BIOTECH, INC., priority 2023, published 2026).

T1 sequence (Q9NZQ7 19-290 limits assumed): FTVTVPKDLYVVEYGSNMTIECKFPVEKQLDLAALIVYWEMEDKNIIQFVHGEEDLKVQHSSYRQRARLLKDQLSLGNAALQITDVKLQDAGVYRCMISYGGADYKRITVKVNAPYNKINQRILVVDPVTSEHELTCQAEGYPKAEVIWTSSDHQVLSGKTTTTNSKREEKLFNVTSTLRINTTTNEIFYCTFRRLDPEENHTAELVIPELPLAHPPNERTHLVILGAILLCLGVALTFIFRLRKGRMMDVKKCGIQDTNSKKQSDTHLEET

As for “SGN-PDL1V: reference ADC of WO 2021067776 A1: SGN-PDL1V antibody moiety conjugated to MC-VC-PABC-MMAE [reference compound]”, the “concentration at which non-specific killing resulted” value in the data set on human dendritic cells and in the data set with human macrophages was “above 20 nM” each time. Further, the TGI in data set [1] turned out to be 24.11%. Besides, in data set [2], the toxicity to mice result was “severely lethal toxicity”.
`CC[C@@]1(O)C(=O)OCc2c1cc1n(c2=O)Cc2c-1nc1cc3c(cc1c2CCCO)OCO3` [A1.3, (S)-7-ethyl-7-hydroxy-14-(3-hydroxypropyl)-10,13-dihydro-11H-[1,3]dioxolo[4,5-g]pyrano[3′,4′,6,7]indolizino[1,2-b]quinoline-8,11(7H)-dione]: the TGI in data set [3] is on record as 56.5%; in data set [4], 34.12%; in data set [5], 37.16%.

B1: MAB20 (antibody, human IgG1, lambda, N297A, V domains shown)
VH: EVQLVQSGGGLVKPGGSLRLSCAASGFTFSSYTMNWVRQAPGKGLEWVSSISSGSDYLYYADSVKGRFTISRDNAKNSLYLQMNSLRAEDTAVYYCARNELRWYPQAGAFDRWGQGTMVTVSS
VL: QSVVTQPPSMSAAPGQRVTISCSGSSSYIESSYVGWYQQLPGTAPRLLIYDDDMRPSGIPDRFSGSKSGTSATLAITGLQTGDEADYYCEIWRSGLGGVFGGGTKLTVLS
notes: also called anti-PDL1 antibody MAB20; Anti-PDL1_mAb
As for B1, the binding result in data set [6] is reported as “binds”.

For orientation: TGI means the reduction of tumour growth relative to the control group. Low readings indicate a weaker effect on the tumour, high ones a stronger effect on the tumour.
